Six sequences from the Immune Epitope Database (IEDB) can be followed below.

pKd: −log10 of the molar value.

The target of assay [1] is HLA-A*02:01. The assay is described as follows: IEDB peptide-MHC binding, purified MHC/competitive/fluorescence; filed as Kd, often an IC50 or EC50 that approximates it; ≥ and ≤ were set here for values at or beyond the usual limits of such assays. The settings on record: source organism: Encephalitozoon cuniculi GB-M1.
The target in assay [2] is HLA-A*02:16. The assay is described as above. The settings on record: source organism: Encephalitozoon cuniculi GB-M1.
Another assay addresses HLA-A*02:11. Described as above. The settings on record: source organism: Encephalitozoon cuniculi GB-M1.
The target in the next assay is HLA-A*02:03. The description is as above.
Another assay concerns the target HLA-A*02:06. Described as above. The settings on record: source organism: Encephalitozoon cuniculi GB-M1.
Assay [3] deals with HLA-A*69:01. The description is as above. The settings on record: source organism: Encephalitozoon cuniculi GB-M1.
The target of the next assay is HLA-A*02:50. The description is as above.
Assay [4] concerns the target HLA-A*02:12. Described as above. The settings on record: source organism: Encephalitozoon cuniculi GB-M1.
A further assay deals with HLA-A*02:19. The assay is described as above. The settings on record: source organism: Encephalitozoon cuniculi GB-M1.
For assay [5], the target named is HLA-A*02:01. Description: IEDB peptide-MHC binding, purified MHC/direct/fluorescence; filed as Kd, often an IC50 or EC50 that approximates it; ≥ and ≤ were set here for values at or beyond the usual limits of such assays.
The target of assay [6] is HLA-A*02:16. Described as above. The settings on record: source organism: Giardia lamblia ATCC 50803.
In assay [7] the target is HLA-A*69:01. The assay is described as above.
Assay [8] addresses HLA-A*02:12. The description is as above. The settings on record: source organism: Giardia lamblia ATCC 50803.
The target of assay [9] is HLA-B*15:17. The assay is described as follows: IEDB peptide-MHC binding, purified MHC/competitive/fluorescence; filed as Kd, often an IC50 or EC50 that approximates it; ≥ and ≤ were set here for values at or beyond the usual limits of such assays. The settings on record: source organism: Giardia lamblia ATCC 50803.
The next assay deals with HLA-A*68:02. Description: IEDB peptide-MHC binding, purified MHC/direct/fluorescence; filed as Kd, often an IC50 or EC50 that approximates it; ≥ and ≤ were set here for values at or beyond the usual limits of such assays.
A further assay has as its target HLA-B*58:01. The assay is described as above.
The target in a further assay is HLA-A*01:01. The description is as above.
A further assay has as its target HLA-B*48:01. The assay is described as above.
Another assay concerns the target HLA-B*40:01. Described as above.
For the next assay, the target named is HLA-A*26:01. The assay is described as above.
Another assay concerns the target HLA-A*31:01. Described as above.
The target of a further assay is HLA-B*46:01. The assay is described as above.
The next assay deals with HLA-B*27:05. The assay is described as above.
Another assay addresses HLA-A*11:01. The assay is described as above.
The next assay deals with HLA-A*03:01. Described as above. The settings on record: source organism: Giardia lamblia ATCC 50803.
In the next assay the target is HLA-B*08:03. Described as above.
A further assay addresses HLA-B*08:02. The assay is described as above. The settings on record: source organism: Giardia lamblia ATCC 50803.
For the next assay, the target named is HLA-B*15:01. The description is as above.
In another assay the target is HLA-B*57:01. The assay is described as above.
In the next assay the target is HLA-B*08:01. Described as above. The settings on record: source organism: Giardia lamblia ATCC 50803.
The target of the next assay is HLA-B*07:02. The assay is described as above.
Another assay deals with HLA-B*35:01. The assay is described as follows: IEDB peptide-MHC binding, purified MHC/competitive/fluorescence; filed as Kd, often an IC50 or EC50 that approximates it; ≥ and ≤ were set here for values at or beyond the usual limits of such assays. The settings on record: source organism: Horsepox virus.
The next assay addresses HLA-A*26:02. Description: IEDB peptide-MHC binding, purified MHC/direct/fluorescence; filed as Kd, often an IC50 or EC50 that approximates it; ≥ and ≤ were set here for values at or beyond the usual limits of such assays. The settings on record: source organism: Variola virus.
In assay [10] the target is HLA-B*15:17. The description is as above. The settings on record: source organism: Camelpox virus M-96.
In another assay the target is HLA-B*15:02. Described as above.
The target in a further assay is HLA-B*15:09. Description: IEDB peptide-MHC binding, purified MHC/competitive/fluorescence; filed as Kd, often an IC50 or EC50 that approximates it; ≥ and ≤ were set here for values at or beyond the usual limits of such assays. The settings on record: source organism: Vaccinia virus Copenhagen.
The target in the next assay is HLA-B*39:01. The assay is described as above. The settings on record: source organism: Vaccinia virus Copenhagen.
The next assay deals with HLA-B*44:02. The assay is described as follows: IEDB peptide-MHC binding, purified MHC/direct/fluorescence; filed as Kd, often an IC50 or EC50 that approximates it; ≥ and ≤ were set here for values at or beyond the usual limits of such assays. The settings on record: source organism: Camelpox virus M-96.
The target of another assay is HLA-B*18:01. Described as above. The settings on record: source organism: Camelpox virus M-96.
Setting [11] is: source organism: Encephalitozoon cuniculi GB-M1.
Where [12] appears, read: source organism: Giardia lamblia ATCC 50803.
Setting [13] is: source organism: Camelpox virus M-96.
The mark [14] stands for this setting: source organism: Mycobacterium tuberculosis str. Haarlem.
Setting [15] is: source organism: Mycobacterium tuberculosis.

The term pKd denotes the negative decadic logarithm of the Kd, by convention in mol/L. A lower pKd goes with a large Kd. Turning to ALEEGRKYV, the negative logarithm of the Kd (pKd) with HLA-A*02:01 [1] was 6.18; with HLA-A*02:16 [2] it was 8.17; with HLA-A*02:11 it was 8.54; with HLA-A*02:03 (setting [11]), 7.54; in the assay with HLA-A*02:06 it was 8.06; with HLA-A*69:01 [3], 5.24. Also, the pKd is 7.91 in the assay with HLA-A*02:50 (setting [11]), 7.37 with HLA-A*02:12 [4] and 6.36 with HLA-A*02:19.
Regarding GMNPYHLAA, the pKd with HLA-A*02:50 (setting [12]) was 7.90; with HLA-A*02:01 [5] (setting [12]) it was 5.36; in the assay with HLA-A*02:16 [6], 7.19; in the assay with HLA-A*69:01 [7] (setting [12]) it was at most 4.70; with HLA-A*02:12 [8], 6.53.
On to IARLVYKAR, for which the pKd in the assay with HLA-B*15:17 [9], in the assay with HLA-A*02:03 (setting [12]), with HLA-A*68:02 (setting [12]), with HLA-A*02:01 [5] (setting [12]), in the assay with HLA-B*58:01 (setting [12]) and in the assay with HLA-A*01:01 (setting [12]) was at most 4.70 in each case. In addition, the pKd was at most 4.70 in the assay with HLA-B*48:01 (setting [12]); at most 4.70 with HLA-B*40:01 (setting [12]); at most 4.70 with HLA-A*26:01 (setting [12]); 7.45 with HLA-A*31:01 (setting [12]); at most 4.70 with HLA-B*46:01 (setting [12]); at most 4.70 with HLA-B*27:05 (setting [12]). Further, the pKd with HLA-A*11:01 (setting [12]), with HLA-A*03:01, with HLA-A*69:01 [7] (setting [12]), with HLA-B*08:03 (setting [12]), in the assay with HLA-B*08:02 and in the assay with HLA-B*15:01 (setting [12]) was at most 4.70 in each case. Besides, the pKd in the assay with HLA-B*57:01 (setting [12]), in the assay with HLA-B*08:01 and with HLA-B*07:02 (setting [12]) was at most 4.70 in each case.
LLRDKDGVY: the pKd in the assay with HLA-B*35:01 is 7.17; with HLA-A*26:02 it was at most 4.70; in the assay with HLA-A*68:02 (setting [13]), at most 4.70; in the assay with HLA-A*02:01 [5] (setting [13]), at most 4.70; with HLA-B*15:17 [10], 6.41; with HLA-B*58:01 (setting [13]) it was at most 4.70. Moreover, the pKd in the assay with HLA-B*15:02 (source organism: Variola virus) is 7.37; in the assay with HLA-A*01:01 (setting [13]), at most 4.70; with HLA-B*48:01 (setting [13]) it was at most 4.70; in the assay with HLA-A*26:01 (source organism: Variola virus), at most 4.70; with HLA-A*31:01 (setting [13]), at most 4.70; in the assay with HLA-B*46:01 (setting [13]), at most 4.70. The pKd with HLA-B*27:05 (setting [13]) was at most 4.70; with HLA-A*11:01 (setting [13]) it was at most 4.70; in the assay with HLA-A*69:01 [7] (setting [13]) it was at most 4.70; with HLA-B*08:03 (source organism: Variola virus), at most 4.70; with HLA-B*15:01 (setting [13]), 7.16; with HLA-B*57:01 (setting [13]) it was at most 4.70. In the assay with HLA-B*07:02 (setting [13]), this sequence gave a pKd of at most 4.70.
Regarding SMRFESSPH, the negative-log Kd (pKd) with HLA-B*15:02 (setting [14]) is 7.31; with HLA-B*46:01 (setting [15]), 4.81; with HLA-B*15:01 (setting [15]), 8.03; with HLA-B*07:02 (setting [14]), 5.27.
WENGFKVVL: the pKd is 5.51 with HLA-B*15:09; 6.31 with HLA-B*39:01; at most 4.70 with HLA-A*68:02 (setting [13]); at most 4.70 in the assay with HLA-A*02:01 [5] (setting [13]); at most 4.70 with HLA-B*15:17 [10]; at most 4.70 with HLA-B*58:01 (setting [13]). Also, the pKd with HLA-A*01:01 (setting [13]) was at most 4.70; in the assay with HLA-B*48:01 (setting [13]), 7.00; in the assay with HLA-B*40:01 (setting [13]) it was 8.40; with HLA-A*31:01 (setting [13]), at most 4.70; in the assay with HLA-B*27:05 (setting [13]) it was at most 4.70; in the assay with HLA-A*11:01 (setting [13]), at most 4.70. Also, the pKd with HLA-A*69:01 [7] (setting [13]) was at most 4.70; with HLA-B*44:02, at most 4.70; in the assay with HLA-B*57:01 (setting [13]) it was at most 4.70; in the assay with HLA-B*18:01, at least 9.00; in the assay with HLA-B*07:02 (setting [13]), at most 4.70.
